This is an account of results in article PMC10786891, “Massively parallel profiling of RNA-targeting CRISPR-Cas13d”.

Broadly, the Kd is the concentration at which binding is half-saturated. The low end stands for higher affinity, the high end for lower affinity.

Changes are numbered by the printed parent chain. Names may count otherwise.

T1: EsCas13d, nuclease-dead (Eubacterium siraeum, UniProt B0MS50, R295A;H300A;R849A;H854A)
T1 sequence: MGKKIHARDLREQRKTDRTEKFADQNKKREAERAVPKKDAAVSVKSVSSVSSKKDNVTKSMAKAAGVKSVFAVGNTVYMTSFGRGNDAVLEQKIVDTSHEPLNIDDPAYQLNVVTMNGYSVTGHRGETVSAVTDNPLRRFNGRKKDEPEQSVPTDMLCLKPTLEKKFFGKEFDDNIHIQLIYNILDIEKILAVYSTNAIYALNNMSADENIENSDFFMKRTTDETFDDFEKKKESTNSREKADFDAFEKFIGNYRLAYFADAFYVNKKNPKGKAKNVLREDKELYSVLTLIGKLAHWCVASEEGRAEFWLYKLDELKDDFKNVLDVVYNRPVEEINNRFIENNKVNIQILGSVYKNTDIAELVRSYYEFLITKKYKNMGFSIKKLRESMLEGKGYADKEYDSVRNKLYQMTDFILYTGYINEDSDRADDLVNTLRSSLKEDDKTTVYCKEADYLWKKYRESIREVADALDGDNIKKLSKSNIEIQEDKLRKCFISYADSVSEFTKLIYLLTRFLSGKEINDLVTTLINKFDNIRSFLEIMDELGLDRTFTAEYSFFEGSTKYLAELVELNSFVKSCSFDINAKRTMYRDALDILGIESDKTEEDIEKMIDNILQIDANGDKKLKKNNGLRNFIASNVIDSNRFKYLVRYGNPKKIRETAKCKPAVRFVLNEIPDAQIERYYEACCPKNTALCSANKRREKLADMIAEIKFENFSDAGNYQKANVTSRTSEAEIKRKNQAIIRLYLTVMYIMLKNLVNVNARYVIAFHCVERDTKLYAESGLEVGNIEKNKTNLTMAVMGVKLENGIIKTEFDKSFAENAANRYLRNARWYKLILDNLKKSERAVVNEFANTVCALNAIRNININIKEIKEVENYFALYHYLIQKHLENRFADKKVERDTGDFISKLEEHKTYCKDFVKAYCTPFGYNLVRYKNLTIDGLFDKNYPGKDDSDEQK

B1: target 3 del1,del6 (mixed)
RNA 1: CACCCGUGCAAAAUUGCAGGGGUCUAAAACGACCUGAAUAUUUCAGAUCAAA
RNA 2: GGGAAUGGAUCCACAUCUACGAAUUCGUUUUUGAUCUGAAAUAUUAGGUUGCAGAUCGGAAGAGCACACGU
B2: target 3 G4C,U7G (mixed)
RNA 1: B1 RNA 1
RNA 2: GGGAAUGGAUCCACAUCUACGAAUUCGUUUUUGAUCUGAAAUAUGCACGUCUGCAGAUCGGAAGAGCACACGU
B3: target 3 G19U (mixed)
RNA 1: B1 RNA 1
RNA 2: B2 RNA 2 with G33U, G45U, C48G
B4: target 3 A5C,C6G (mixed)
RNA 1: B1 RNA 1
RNA 2: B2 RNA 2 with G45U, C46G, A47C, C48G
B5: target 3 U8C,U22A (mixed)
RNA 1: B1 RNA 1
RNA 2: B2 RNA 2 with U30A, U44C, G45U, C48G
B6: target 3 A13G,A18G (mixed)
RNA 1: B1 RNA 1
RNA 2: B2 RNA 2 with A34G, A39G, G45U, C48G
B7: target 3 U2C,U22A (mixed)
RNA 1: B1 RNA 1
RNA 2: B2 RNA 2 with U30A, G45U, C48G, U50C
B8: target 3 G3A,C6G (mixed)
RNA 1: B1 RNA 1
RNA 2: B2 RNA 2 with G45U, C46G, C48G, G49A
B9: target 3 G3A,A18G (mixed)
RNA 1: B1 RNA 1
RNA 2: B2 RNA 2 with A34G, G45U, C48G, G49A
B10: target 3 U2G,U7C (mixed)
RNA 1: B1 RNA 1
RNA 2: B2 RNA 2 with G45C, C48G, U50G
B11: target 3 insU 3' of 11 (mixed)
RNA 1: B1 RNA 1
RNA 2: GGGAAUGGAUCCACAUCUACGAAUUCGUUUUUGAUCUGAAAUUAUUCAGGUCUGCAGAUCGGAAGAGCACACGU
B12: target 3 insU 3' of 22,insC 3' of 4 (mixed)
RNA 1: B1 RNA 1
RNA 2: GGGAAUGGAUCCACAUCUACGAAUUCGUUUUUUGAUCUGAAAUAUUCAGCGUCUGCAGAUCGGAAGAGCACACGU
B13: target 3 C1G,A9C (mixed)
RNA 1: B1 RNA 1
RNA 2: B2 RNA 2 with A43C, G45U, C48G, C51G
B14: target 3 insA 3' of 22,insU 3' of 19 (mixed)
RNA 1: B1 RNA 1
RNA 2: GGGAAUGGAUCCACAUCUACGAAUUCGUUUAUUGUAUCUGAAAUAUUCAGGUCUGCAGAUCGGAAGAGCACACGU
B15: target 3 insC 3' of 11,insA 3' of 2 (mixed)
RNA 1: B1 RNA 1
RNA 2: GGGAAUGGAUCCACAUCUACGAAUUCGUUUUUGAUCUGAAACUAUUCAGGUACUGCAGAUCGGAAGAGCACACGU
B16: target 3 insG 3' of 2,insA 3' of 2 (mixed)
RNA 1: B1 RNA 1
RNA 2: B15 RNA 2 with C42U, U43A, A44U, U46C, C47A, A48G, G50U, U51G
B17: target 3 insU 3' of 11,insG 3' of 6 (mixed)
RNA 1: B1 RNA 1
RNA 2: B15 RNA 2 with C42U, A48G, G49A, U51G, A52U
B18: target 3 C6U,A11G (mixed)
RNA 1: B1 RNA 1
RNA 2: B2 RNA 2 with A41G, G45U, C46U, C48G
B19: target 3 A11G,A12G (mixed)
RNA 1: B1 RNA 1
RNA 2: B2 RNA 2 with A40G, A41G, G45U, C48G
B20: target 3 insA 3' of 8 (mixed)
RNA 1: B1 RNA 1
RNA 2: B11 RNA 2 with U43A, A44U, U45A
B21: target 3 C1A,U8G (mixed)
RNA 1: B1 RNA 1
RNA 2: B2 RNA 2 with U44G, G45U, C48G, C51A
B22: target 3 insA 3' of 14,insA 3' of 2 (mixed)
RNA 1: B1 RNA 1
RNA 2: B15 RNA 2 with C42A
B23: target 3 complement block 5-9 (mixed)
RNA 1: B1 RNA 1
RNA 2: B2 RNA 2 with A43U, U44A, G45A, C46G, A47U, C48G
B24: target 3 insU 3' of 6,insA 3' of 6 (mixed)
RNA 1: B1 RNA 1
RNA 2: B15 RNA 2 with C42U, U43A, A44U, U46C, C47U, G49A, U51G, A52U
B25: target 3 U2A,A11G (mixed)
RNA 1: B1 RNA 1
RNA 2: B2 RNA 2 with A41G, G45U, C48G, U50A
B26: target 3 insU 3' of 9,insA 3' of 8 (mixed)
RNA 1: B1 RNA 1
RNA 2: B15 RNA 2 with C42U, U43A, A44U, U46A, C47U, A48C, G49A, U51G, A52U
B27: target 3 G4A,U7C (mixed)
RNA 1: B1 RNA 1
RNA 2: B2 RNA 2 with G45C, C48A
B28: target 1 G5U,U10C (mixed)
RNA 1: CACCCGUGCAAAAAUGCAGGGGUCUAAAACUGAGCGGAUAACCUCUCUAUGG
RNA 2: GGGAAUGGAUCCACAUCUACGAAUUCGUACCAUAGAGAGGUCAUCCUCUCACCGAGAUCGGAAGAGCACACGU
B29: target 1 insG 3' of 21,insU 3' of 1 (mixed)
RNA 1: B28 RNA 1
RNA 2: GGGAAUGGAUCCACAUCUACGAAUUCGUACCGAUAGAGAGGUUAUCCGCUCAUCCGAGAUCGGAAGAGCACACGU
B30: target 1 U11G,A14G (mixed)
RNA 1: B28 RNA 1
RNA 2: B28 RNA 2 with A38G, U41G, C42U, U47G
B31: target 1 insC 3' of 8,insU 3' of 7 (mixed)
RNA 1: B28 RNA 1
RNA 2: GGGAAUGGAUCCACAUCUACGAAUUCGUACCAUAGAGAGGUUAUCCUCGCUCACCGAGAUCGGAAGAGCACACGU
B32: target 1 U3A,C6U (mixed)
RNA 1: B28 RNA 1
RNA 2: B28 RNA 2 with C42U, C46U, U47G, U49A

The target in this series is T1, EsCas13d, nuclease-dead. Description: crRNA (strand 1, pre-loaded); Mg2+; 40 mM Tris-HCl pH 7.5, 150 mM NaCl, 6 mM MgCl2, 1 mM DTT, 0.1% Tween-20, 0.2 mg/ml BSA; 25 C; 10 min per concentration, then washed. To be noted: tags: His6-TwinStrep-SUMO cleaved; N-terminal SNAP kept (SNAP-Surface 488); label: 3' end held by stalled T7 RNA polymerase.
Turning to B1, the Kd was approximately 56 nM. B2 gave a Kd of 44.1 ± 4.1 nM.

B3 came in with a Kd of 83 ± 9.5 nM. B4 yielded a Kd of 53.5 ± 5.5 nM. Compared with the last molecule, the Kd is about 1.6-fold lower.

Molecule B5 yielded a Kd of 42.3 ± 4.95 nM. The same measure for B6: approximately 100 nM; for B7: 77.5 ± 14 nM. The figure for B8 is 46.5 ± 7 nM; for B9 it is 55 ± 13 nM. The figure for B10 is 28 ± 4.5 nM; for B11 it is 81 ± 31 nM; for B12 it is 19.5 ± 4.5 nM.

As for B13, binding was put at a Kd of 54 ± 18 nM. On to B14, for which binding was characterised by a dissociation constant (Kd) of 65 ± 15 nM. For B15, binding was characterised by a dissociation constant (Kd) of 45.5 ± 11.5 nM. B16 came in with a Kd of 20.3 ± 2.6 nM. In turn, B17 returned a Kd of 87 ± 14.5 nM. The figure for B18 is 47 ± 10.5 nM; for B19 it is 73 ± 29.5 nM. B20 had a Kd of 50.5 ± 10 nM. The same measure for B21: 74 ± 16 nM.

B22 had a dissociation constant Kd of 64 ± 10 nM.

Molecule B23 yielded a Kd of 90 ± 9.5 nM. The figure for B24 is 8.69 ± 0.57 nM; for B25 it is 73.5 ± 24 nM; for B26 it is 71.5 ± 21.5 nM. The same measure for B27: 71 ± 12.5 nM.

In the case of B28, the Kd came out at 95 ± 19 nM. The figure for B29 is 71 ± 12 nM. Consider B30, for which the Kd was determined as 22.1 ± 1.3 nM.

B31: the affinity, expressed as Kd, was 13.6 ± 1.1 nM. For the molecule B32, binding was put at a Kd of 5.27 ± 0.27 nM. Compared with the last molecule, the Kd is about 2.6-fold lower.
